The results in this text go back to the nanobody polyreactivity screen of Harvey et al. (2022).

The nature of this data set: yeast display, Sf9 membrane polyspecificity reagent, FACS + sequencing; frameworks hold sequencing errors. In a few lines: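 Sorting gates, low and high (top ~1%), were placed on anti-HA fluorescence to track expression and on streptavidin fluorescence to track reagent binding. A clone's polyreactivity label is taken from the gate it came out of. The reagent was 10% biotinylated, detergent-solubilized Sf9 membrane, applied for 1 hour at 4 °C to galactose-induced yeast display cells.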
For “QVQLVESGGGLVQAGGSLRLSCAASGRTLRRYAMGSYREAPGKERELVATISGRGGSTYYADSVMGRFTISRDNAKNTVYLQMNSLKPEYTAVYYCNRVTSRVSGRYSYDYWGQGTQVTVSS”, the “polyreactivity (PSR sort gate)” value is “high polyreactivity”.

Regarding “QVQLVESGGGLVQAGGSLRLSCAASGRTLRRYAMGWYRQAPGKERELVAAISRSGSSTYADSVKGRFTISRDNAKNTVYFQMNSLKPEDTAVYYCNAVYGYSAHGYYYRYDYWGQGTQVTVSS”, the “polyreactivity (PSR sort gate)” value was “high polyreactivity”.

For “QVQLVESGGGLVQAGGSLRLSCAASGRTLRSYAMGWYRQAPGKERELVAAITRTGGDTYYADSVKGRFTISRDNANNTLYLQMNSLKPEDTAVYYCAAQRYRGYDYWGQGTQVTVSS”, the “polyreactivity (PSR sort gate)” value is “high polyreactivity”.

As for “QVQLVESGGGLVQAGGSLRLSCAASGRTLRVNTMGWYRQAPGKERELVAAISSGGSRTNYADSVKGRFTISRDNAKNTVYLQMNSLKPEDTAVYYCNKYNRFVYSPPSVYWGQGTQVTVSS”, the “polyreactivity (PSR sort gate)” value is listed as “high polyreactivity”.

Take “QVQLVESGGGLVQAGGSLRLSCAASGRTLRWYAMGWYRQAPGKERELVAAIRWSGGSTYYADSVKGRFTISRDNAKNTVYLQMNSLKPEDTAVYYCAAYYVARDRRYPKAYSYEYWGQGTQVTVSS”: the “polyreactivity (PSR sort gate)” value is listed as “high polyreactivity”.

Regarding “QVQLVESGGGLVQAGGSLRLSCAASGRTLRYNTKGWYRQAPGKERELVADISWTGGSTYYADSVKGRFTISRDNAKNTVYLQMNSLKPEDTAVYYCAADEWWYPWYDYWGQGTQVTVSS”, the “polyreactivity (PSR sort gate)” value was “high polyreactivity”.

Regarding “QVQLVESGGGLVQAGGSLRLSCAASGRTLRYNVMGLYRQAPGKERELVAVIDRSGVSTYYADSVKGRFTISRDNAKNTVYLQMNSLKPEDTAVYYCAAPRVVYRGDYWGQGTQVTVSW”, the “polyreactivity (PSR sort gate)” value is “high polyreactivity”.

For the sequence “QVQLVESGGGLVQAGGSLRLSCAASGRTLRYNVMGWYRHAPGKERELVAAISSGGSTYYADSVKGRFTISRDNAKNTVYLQMNSLKPEDTAVYYCAKRVSNWVTGGGYYYWGQGTQVTVSS”, the “polyreactivity (PSR sort gate)” value is “high polyreactivity”.

In the case of “QVQLVESGGGLVQAGGSLRLSCAASGRTLRYYAMGWYRQAPGKERELVAAITKSGGSTYYADSVKGRFTISRDNAKNTVYLQMTSLKPEDTAVYYCNKVTYSRAQYIGGDGYYWGQGTQVTVSS”, the “polyreactivity (PSR sort gate)” value was “high polyreactivity”.

Take “QVQLVESGGGLVQAGGSLRLSCAASGRTLSFYAMGWYRQAPGKERELVASISSGGRTYYADSVKGRFTISRDNAKNTVYLQMNSLKPEDTAVYYCAVGYRSRYRSRDDYWGQGTQVTVSS”: the “polyreactivity (PSR sort gate)” value is listed as “high polyreactivity”.

As for “QVQLVESGGGLVQAGGSLRLSCAASGRTLSIYAMGMYRQAPGKEMELVASISSSGGRTDYADSVKGRFTISRDNAKYTVYLQMNSLKPEDTAVYYCAADGGYYYPYRGYHKYYYWGQGTLVTVSS”, the “polyreactivity (PSR sort gate)” value is “low polyreactivity”.

As for “QVQLVESGGGLVQAGGSLRLSCAASGRTLSRYAMGWYRQAPGKEREFVAGISASGGRTYYADSVKGRFTISRDNAKNTVYLQMNSLKPEDTAVYYCAAQLPWAGGKYDYWGQGTQVTVSS”, the “polyreactivity (PSR sort gate)” value is “high polyreactivity”.

On to “QVQLVESGGGLVQAGGSLRLSCAASGRTLSTNGMGWYRQAPGKERELVATITRRGGRTYYADSVKGRFTISRDNAKNTVYLQMNSLKPEDTAVYYCATEQADRRVTYKYWGQGTQVTVSS”, for which the “polyreactivity (PSR sort gate)” value was “high polyreactivity”.

Consider “QVQLVESGGGLVQAGGSLRLSCAASGRTLSYYARGWYRQAPGKERELVASIRRRTGSTYYAESVKGRFTISRDNAKNSVYLQMNSLTPEDTAVYYCAADLIYYGEYDYWGQGTQVTVSS”, for which the “polyreactivity (PSR sort gate)” value was “high polyreactivity”.

For “QVQLVESGGGLVQAGGSLRLSCAASGRTLTKYVMGWYRQAPGKEREFVAAISSSGDSTYYADSVKGRFTISRDNAKNPVYLQMNSLKQEDTAVYYCAKYDRNTYCYWGQCTQVTVSS”, the “polyreactivity (PSR sort gate)” value was “low polyreactivity”.

Consider “QVQLVESGGGLVQAGGSLRLSCAASGRTLTSNAMGWYRQAPGKERELVASITGSSSNTYYADSVKGRFTISRDNAKNTVYLQMNSLKPEDTAVYYCAAEVGFPWWRLDEYWGQGTQVTVSS”, for which the “polyreactivity (PSR sort gate)” value is reported as “low polyreactivity”.

For the sequence “QVQLVESGGGLVQAGGSLRLSCAASGRTLVKYAMGRYRPAPGKERELVAALTQRGGITYYADSVKGRFTISRDNAKNTVYLQMNSLKPEDTAVYYCAASLYSYRSPYTFYYWGQGTQVTVSS”, the “polyreactivity (PSR sort gate)” value is recorded as “high polyreactivity”.

On to “QVQLVESGGGLVQAGGSLRLSCAASGRTLVRNVMGWYRQAPGKERELVAAISRSGGSTYYADSVKGRFTISRDNAKNTVYLQMNSLKPEDTAVYYCAAATKSNGAPIFDSWGQGTQVTVSS”, for which the “polyreactivity (PSR sort gate)” value is listed as “high polyreactivity”.

On to “QVQLVESGGGLVQAGGSLRLSCAASGRTLVVNDMGWYRQAPGKERELVADINWSGGRTYYADSVKGRFTISRDNAKNTVYLQMNSLKPEDTAVYYCAADLSWRQYYREYDYWGQGTEVTVSS”, for which the “polyreactivity (PSR sort gate)” value is reported as “high polyreactivity”.

On to “QVQLVESGGGLVQAGGSLRLSCAASGRTLVYYAMGWYRQAPGKERELVAAITSVGSTNYADSVKGRFTISRDNAKNTVYLQMNSLKPEDTAVYYCAADRTYRFYYTQGYEYWGQGTQVTVSS”, for which the “polyreactivity (PSR sort gate)” value was “low polyreactivity”.

Regarding “QVQLVESGGGLVQAGGSLRLSCAASGRTLWWYAMAWYRQAPGKERELVAAIDYSDGNTYYADSVKGRFTISRDNAKNTVYLQMNSLKPEDTAVYYCAAEGYYNYGSYYWGQGTQVTVSS”, the “polyreactivity (PSR sort gate)” value is “high polyreactivity”.

For the sequence “QVQLVESGGGLVQAGGSLRLSCAASGRTLWYYTMGWYRQAPGKERELVADITRGTSTNYADSVKGRFTISRDNAKNTVYLQMNSLKPEDTAVYYCNRAHGRSRYSRDYDSWGQGTQVTVSS”, the “polyreactivity (PSR sort gate)” value is “low polyreactivity”.

With “QVQLVESGGGLVQAGGSLRLSCAASGRTLYFNAMAWYRQEPGKERELVADISIGGSTYYADSVKGRFTISRDNAKNTVYLQMNSLKPEDTAVYYLATDYLGGGKRYYYWGQGTQVTVSS”, the “polyreactivity (PSR sort gate)” value is listed as “high polyreactivity”.

“QVQLVESGGGLVQAGGSLRLSCAASGRTLYFNAMGWYRQAPGKERELVADISIGGSTYYADSVKGRFTISRDNAKNTVYLQMNSLKPEDTAVYYCAANAHYYVSYAWYVDVDYWGQGTQVTVSS”: the “polyreactivity (PSR sort gate)” value is listed as “high polyreactivity”.

In the case of “QVQLVESGGGLVQAGGSLRLSCAASGRTLYGYAMGWYRQAPGKERELVASIRSGGSTNYADSVKGSFTISRDNAKNTVYFQMNSLKQEYTAVYYCAAEPYYSYGYYHAHGRDVGYWGQGTQVTVSS”, the “polyreactivity (PSR sort gate)” value is on record as “low polyreactivity”.

“QVQLVESGGGLVQAGGSLRLSCAASGRTLYKYAMGWYRQAPGKERELVATISSGGRTNYADSVKGRFTISRDNAKNPVYLQMNSLKPEDTAVYYCAADVVRYYYTYDYWGQGTQVTVSS”: the “polyreactivity (PSR sort gate)” value is reported as “low polyreactivity”.

For the sequence “QVQLVESGGGLVQAGGSLRLSCAASGRTLYRNAMGWDRQAPGKERELVATITSGGSTYYADSVKGRFTISRDTAKNTVYLLMNSLKPEDTAVYYCNADWYWRVYWGQGTQVTVSS”, the “polyreactivity (PSR sort gate)” value is on record as “high polyreactivity”.

As to “QVQLVESGGGLVQAGGSLRLSCAASGRTMDFNVMGWYRQAPGKERELVAAITWSGGSTYYSDSVKGRFTISRDNAKNTVYLQMNSLKPVDTAVYYCAKDLWYWARRYDYWGQGTQVTVSS”, the “polyreactivity (PSR sort gate)” value is “high polyreactivity”.

As to “QVQLVESGGGLVQAGGSLRLSCAASGRTNCEYTMGWYRKAPGKERELVAVITKSGGSTYYADSVKGRFTISRDNAKNTVYLQMNSLKPEDTAVYDCAARRYYYLNSRYGYWGQGTQVTVSS”, the “polyreactivity (PSR sort gate)” value is “high polyreactivity”.

Regarding “QVQLVESGGGLVQAGGSLRLSCAASGRTRFYAMGWYRQPPGKEREMVAAISGSSGSTYYADSVKGRFTISRDNAKNTVYLQMNSLKPEDTAVYYCAADFWRFYYEYDYWGQGTQVTVSS”, the “polyreactivity (PSR sort gate)” value is reported as “low polyreactivity”.

Turning to “QVQLVESGGGLVQAGGSLRLSCAASGRTRHGYTMGWYRQAPGKERELVATISSIGGSTYYADSLKGRFTISRDNAKNTVYLQMNSLKPEDTAVYYSNRGRARVIFSGMDYWGQGTQVTVSS”, the “polyreactivity (PSR sort gate)” value is recorded as “low polyreactivity”.

On to “QVQLVESGGGLVQAGGSLRLSCAASGRTSFHYAMGWYRQAPGKERELVAAINWNGGRTYYADSVKGRFTISRDNAKNTVYLQMNSLKPEDTAVYYCAARLSYLGGYDYWGQGTQVTVSS”, for which the “polyreactivity (PSR sort gate)” value is given as “high polyreactivity”.

Take “QVQLVESGGGLVQAGGSLRLSCAASGRTSFYYGMGWYRQAPGKERELVAGINYGGGSTYYADSVKGRFTISRDNAKNTVYLQMNSLKPEDTAVYYCNAGDGPDEEYDYWGQGTQVTVSS”: the “polyreactivity (PSR sort gate)” value was “low polyreactivity”.

Turning to “QVQLVESGGGLVQAGGSLRLSCAASGRTSGAYAMGWYRQAPGKERELVAAISIAGITYADSVKGRFTISRDNAKNTVYLQMNSLKPEDTAVYYCAAYYLFRPYAQYDYWGQGTQVTVSS”, the “polyreactivity (PSR sort gate)” value is on record as “low polyreactivity”.

Take “QVQLVESGGGLVQAGGSLRLSCAASGRTSGGYAMGWYRQAPGNERELVASITWSGDTTYYADSVTGRFTISRDNAKNTVYLQMNSLKPEDTAVYYCATIPGYVYYWQYKYDYWGQGTQVTVSS”: the “polyreactivity (PSR sort gate)” value is “low polyreactivity”.

Turning to “QVQLVESGGGLVQAGGSLRLSCAASGRTSGINAMGWYRQAPGKERELVAAISSGGRTYYADSVKGRFTISRDNAKNTVYLQMNSLKPEDTAVYYCAAVIHWSLYRRMEYWGQGTQVTVSS”, the “polyreactivity (PSR sort gate)” value is given as “high polyreactivity”.

Consider “QVQLVESGGGLVQAGGSLRLSCAASGRTSGKNAMGSYRQATRKEREMVAAISSSGGSTYYADSVKGRFTISRDNAKNTVYLQMNSLKPEDTAVYYCAAKYFRKYSQIGPDMYYWGQGTQVTVSS”, for which the “polyreactivity (PSR sort gate)” value was “high polyreactivity”.

Take “QVQLVESGGGLVQAGGSLRLSCAASGRTSIPYARGWYRQAPGKERELVAAISYSVGRTYYADSVKGRFTISRDNAKNTVYLQMNSLKPEDTAVYYCAAEYNGVVRDYDYWGQGTQVTVSS”: the “polyreactivity (PSR sort gate)” value is recorded as “low polyreactivity”.

Turning to “QVQLVESGGGLVQAGGSLRLSCAASGRTSIYNTMGWYRQAPGKERELVAAINPSGSTNYADSVKGRFTISRDNAKNTVYLQMNSLKPEDTAVYYCAAVVKWWGQSRYDYWGQGTQVTVSS”, the “polyreactivity (PSR sort gate)” value is listed as “high polyreactivity”.

For “QVQLVESGGGLVQAGGSLRLSCAASGRTSKYYAMGWYRQAPGKERELVAAITGTGGSTYYADSVKGRFTISRDNAKNTVYLQMNSLKPEDTAVYYCAALRKSYTYDSWGQGTQVTVSS”, the “polyreactivity (PSR sort gate)” value is “high polyreactivity”.

Consider “QVQLVESGGGLVQAGGSLRLSCAASGRTSLRYAMGWYRQAPGKERELVAAITSSGATTYYADSVKGRFTISRDNAKNTVYLQMNSLKPEDTAVYYCAAVYSAKRGSGGFGYWGQGTQVTVSS”, for which the “polyreactivity (PSR sort gate)” value was “high polyreactivity”.
